T1: MnoR (Mycobacterium smegmatis, UniProt A0R5L8 1-216)
T1 sequence: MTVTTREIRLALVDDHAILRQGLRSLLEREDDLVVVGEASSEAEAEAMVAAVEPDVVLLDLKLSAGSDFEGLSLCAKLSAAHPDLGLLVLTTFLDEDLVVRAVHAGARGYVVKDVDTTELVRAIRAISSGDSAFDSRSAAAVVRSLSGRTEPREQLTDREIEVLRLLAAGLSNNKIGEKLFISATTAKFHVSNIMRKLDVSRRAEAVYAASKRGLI


Key:
MnoR [1] = target: T1, MnoR; test: MST; PBS-T; EMSA: 50 mM Tris-HCl (pH not stated), 100 mM NaCl, 10 mM MgCl2, 100 ug/ml BSA, 5% glycerol, 5 nM DNA, 30 min 25 °C, 5% native gel at 4 °C; MST: PBS-T, room temperature, DNA 60 nM (perfect), 15 nM (2MM), 120 nM (4MM); conditions: protein: recombinant; tags: N-terminal 6xHis; chain copies: 2; label: 5'-Cy5 on strand 1; blunt
MnoR [2] = target: T1, MnoR; test: EMSA; 100x polyA instead of salmon sperm DNA; EMSA: 50 mM Tris-HCl (pH not stated), 100 mM NaCl, 10 mM MgCl2, 100 ug/ml BSA, 5% glycerol, 5 nM DNA, 30 min 25 °C, 5% native gel at 4 °C; MST: PBS-T, room temperature, DNA 60 nM (perfect), 15 nM (2MM), 120 nM (4MM); conditions: protein: recombinant, tags: N-terminal 6xHis, chain copies: 2, label: 5'-Cy5 on strand 1

Binder	binding result (MnoR [2]; blunt)	other results
mno perfect motif (dsDNA) DNA 1: GCCTGAGCGATCTGGGGCTCTGAGCACCCTCGCCCACCGGTGAGCCGCCGGTGGGCGGCCACCCTGCCCGACCGGACAGTTCTGCCG DNA 2: CGGCAGAACTGTCCGGTCGGGCAGGGTGGCCGCCCACCGGCGGCTCACCGGTGGGCGAGGGTGCTCAGAGCCCCAGATCGCTCAGGC	–	Kd (MnoR [1]): 2.37 µM
mno 3MM (dsDNA) DNA 1: GCTGGAGGAGGCGTTCACCGCTGACTGGCTCGCCCAGCACTCCTAAGCCGGTGGGCGCCGTCACCCGCGGCACCACCGGTTACAACC DNA 2: GGTTGTAACCGGTGGTGCCGCGGGTGACGGCGCCCACCGGCTTAGGAGTGCTGGGCGAGCCAGTCAGCGGTGAACGCCTCCTCCAGC	binds	–
mno 4MM (dsDNA) DNA 1: CACGCTGATCACGTCCGACGTCGACGAGCGCGACCAGCCGTTCATCACCGGTGAGCGCACCAAGGAAGGCTTCTTCCGCGTGAAGAA DNA 2: TTCTTCACGCGGAAGAAGCCTTCCTTGGTGCGCTCACCGGTGATGAACGGCTGGTCGCGCTCGTCGACGTCGGACGTGATCAGCGTG	binds	–
mno 2MM (dsDNA) DNA 1: ACCTGGCGGATCTGAGCCCGGCAGGCGATCCGCACACCGGTACCGTGCTGGTGGGCGCGAGCCCCGAGTTGCTGGTCGCCCGCGACG DNA 2: CGTCGCGGGCGACCAGCAACTCGGGGCTCGCGCCCACCAAGCACGGTACCGGTGTGCGGATCGCCTGCCGGGCTCAGATCCGCCAGGT	–	binding result (MnoR [2]): binds

— publication PMC11303327, “MnoSR removal in Mycobacterium smegmatis triggers broad transcriptional response to 1,3-propanediol and glucose as sole carbon sources”
